According to article PMC5000598:

Experiments:
[1] = target: LZ-EGFR-GFP (chimeric EGFR with the extracellular domain replaced by the c-Fos leucine zipper, GFP at the C-terminus) (UniProt P01100); assay: cross-linking; homogenates of transiently transfected 293T cells in PBS, 6 mM DSS, 30 min at room temperature, quenched with 250 mM glycine; membrane pellet lysed, SDS-PAGE, immunoblot with anti-EGFR and anti-GFP; EGFR-GFP cells stimulated with EGF (100 ng/mL, 30 min)
[2] = target: LZ-EGFR-GFP (chimeric EGFR with the extracellular domain replaced by the c-Fos leucine zipper, GFP at the C-terminus) (UniProt P01100); assay: SDS-resistant dimer on SDS-PAGE immunoblot; total Triton X-100 lysates of transfected 293T cells boiled in SDS-loading buffer with beta-mercaptoethanol, no cross-linker; immunoblot with anti-pEGFR antibodies

stoichiometry N [1]: 2 | stoichiometry N [2]: 2
Substance: LZ-EGFR-GFP (chimeric EGFR with the extracellular domain replaced by the c-Fos leucine zipper, GFP at the C-terminus) (from UniProt P01100 160-200; P00533 623-1210) (receptor)
